This passage reports Mean relative activity results from patent US20220259593A1, “CONTROL OF MAMMALIAN GENE DOSAGE USING CRISPR” (The Regents of the University of California, priority 2019, published 2022).

Positions count from the first letter of the chain named.

The labels stand for the following.
B1: cr105 (nucleic acid)
guide: GTTTAAGAGCTAAGCTGGAAACAGCATAGCAAGTTTAAATAAGGCCAGTCCGTTATCAACTTGACAAAGTGGCACCGAGTCGGTGCT
modifications: listed as DNA, chemistry not fully specified
B2: cr871 (nucleic acid)
guide: B1 guide with G44C, C46T, C50G, C65A
modifications: listed as DNA, chemistry not fully specified
B3: cr435 (nucleic acid)
guide: B1 guide with A31C, C46T, T53G, C65A
modifications: listed as DNA, chemistry not fully specified
B4: cr899 (nucleic acid)
guide: B1 guide with G44A, C46T, C50T, A59G, C65A, T70C, C73T, G85A
modifications: listed as DNA, chemistry not fully specified
B5: cr521 (nucleic acid)
guide: B1 guide with C46T, A47G, C65A, A78T
modifications: listed as DNA, chemistry not fully specified
B6: cr370 (nucleic acid)
guide: B1 guide with C46T, C65G, C76G, G82C
modifications: listed as DNA, chemistry not fully specified
B7: cr865 (nucleic acid)
guide: B1 guide with C46T, A59T, C65A
modifications: listed as DNA, chemistry not fully specified
B8: cr788 (nucleic acid)
guide: B1 guide with G29T, C46T, C65A
modifications: listed as DNA, chemistry not fully specified
B9: cr162 (nucleic acid)
guide: B1 guide with C46T, C65A, T84A
modifications: listed as DNA, chemistry not fully specified
B10: cr676 (nucleic acid)
guide: B1 guide with C46T, A64G, C65A, G71T
modifications: listed as DNA, chemistry not fully specified
B11: cr960 (nucleic acid)
guide: B1 guide with C46T, A59T, C60A, C65A, G69T, T70A
modifications: listed as DNA, chemistry not fully specified
B12: cr914 (nucleic acid)
guide: B1 guide with G44A, C46T, C50T, C65A, C73G, G85C
modifications: listed as DNA, chemistry not fully specified
B13: cr878 (nucleic acid)
guide: B1 guide with C45T, C46T, G48A, C60T, C65A, G69A, C75T, G83A
modifications: listed as DNA, chemistry not fully specified
B14: cr319 (nucleic acid)
guide: B1 guide with A42G, C46T, C65G
modifications: listed as DNA, chemistry not fully specified
B15: cr543 (nucleic acid)
guide: B1 guide with T35C, C46T, C65A
modifications: listed as DNA, chemistry not fully specified
B16: cr891 (nucleic acid)
guide: B1 guide with G44A, C46T, C50T, C65A, C73T, G85A
modifications: listed as DNA, chemistry not fully specified
B17: cr362 (nucleic acid)
guide: B1 guide with C46T, C65A, C76A
modifications: listed as DNA, chemistry not fully specified
B18: cr688 (nucleic acid)
guide: B1 guide with C46T, C65T, T80C
modifications: listed as DNA, chemistry not fully specified
B19: cr169 (nucleic acid)
guide: B1 guide with C46T, C65G, T80C
modifications: listed as DNA, chemistry not fully specified
B20: cr420 (nucleic acid)
guide: B1 guide with C46T, C65A, G72T, C73G, G77T, C81A, G85C, C86A
modifications: listed as DNA, chemistry not fully specified
B21: cr692 (nucleic acid)
guide: B1 guide with G17A, C46T, C65A
modifications: listed as DNA, chemistry not fully specified
B22: cr919 (nucleic acid)
guide: B1 guide with C46T, A59C, T62G, C65A, A67C, T70G
modifications: listed as DNA, chemistry not fully specified
B23: cr785 (nucleic acid)
guide: B1 guide with C46G, C65A, T87G
modifications: listed as DNA, chemistry not fully specified
B24: cr717 (nucleic acid)
guide: B1 guide with C45T, C46T, G48A, A59G, C65A, T70C
modifications: listed as DNA, chemistry not fully specified
B25: cr022 (nucleic acid)
guide: B1 guide with A8T, C46T, C65A
modifications: listed as DNA, chemistry not fully specified
B26: cr943 (nucleic acid)
guide: B1 guide with C46T, C65A, G72A, C75A, G83T, C86T
modifications: listed as DNA, chemistry not fully specified
B27: cr647 (nucleic acid)
guide: B1 guide with C25G, C46T, C65A
modifications: listed as DNA, chemistry not fully specified
B28: cr184 (nucleic acid)
guide: B1 guide with C46T, T53G, A64G, C65A
modifications: listed as DNA, chemistry not fully specified
B29: cr829 (nucleic acid)
guide: B1 guide with G29C, C46T, C65A
modifications: listed as DNA, chemistry not fully specified
B30: cr554 (nucleic acid)
guide: B1 guide with A32G, C46T, T56C, C65A, G71A
modifications: listed as DNA, chemistry not fully specified
B31: cr391 (nucleic acid)
guide: B1 guide with G44C, C46T, C50G, C65A, C75A, G83T
modifications: listed as DNA, chemistry not fully specified
B32: cr407 (nucleic acid)
guide: B1 guide with G44C, C46T, C50G, T61C, C65A, A68G, C75T, G83A
modifications: listed as DNA, chemistry not fully specified
B33: cr495 (nucleic acid)
guide: B1 guide with C46T, C65A, T80A
modifications: listed as DNA, chemistry not fully specified
B34: cr643 (nucleic acid)
guide: B1 guide with G44A, C46T, C50T, A59G, C65A, T70C, C75T, G83A
modifications: listed as DNA, chemistry not fully specified
B35: cr289 (nucleic acid)
guide: B1 guide with C46T, T62G, C65A, A67C
modifications: listed as DNA, chemistry not fully specified
B36: cr590 (nucleic acid)
guide: B1 guide with C46T, T80C
modifications: listed as DNA, chemistry not fully specified
B37: cr601 (nucleic acid)
guide: B1 guide with C30A, C46T, C65A
modifications: listed as DNA, chemistry not fully specified
B38: cr216 (nucleic acid)
guide: B1 guide with G44A, C46T, C50T, C65A
modifications: listed as DNA, chemistry not fully specified
B39: cr816 (nucleic acid)
guide: B1 guide with C46T, C65A, G71T
modifications: listed as DNA, chemistry not fully specified

The data set relates to K562 CRISPRi cells. Put plainly: Constant region variant library pooled growth screen, K562. Format: cell-based, human. The note with it: sgRNA constant region variants; activity relative to the original, un-modified constant region cr995. In short, it runs like this:
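Growth screens in K562 CRISPRi cells were harvested 4-8 days post-selection at >2000× library coverage. Each variant's phenotype was referenced to the unmodified constant region with the same targeting sequence.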
For B1, the Mean relative activity came out at 0.8672.

For the molecule B2, the Mean relative activity came to 0.8313. In the case of B3 it was 0.8281.

In turn, B4 gave a Mean relative activity of 0.8583. In the case of B5, the Mean relative activity was determined as 0.8638. The same measure for B6: 0.8417; for B7: 0.8637. For B8, the Mean relative activity amounted to 0.8617. In the case of B9 it was 0.8263; in that of B10, 0.8506; in that of B11, 0.8446. In turn, B12 registered a Mean relative activity of 0.8494. In the case of B13 it was 0.847; in that of B14, 0.8419.

In turn, B15 displayed a Mean relative activity of 0.8231. The same measure for B16: 0.8641; for B17: 0.8214; for B18: 0.848. In the case of B19 it was 0.8454.

For the molecule B20, the Mean relative activity is 0.8229. The same measure for B21: 0.8665.

Take B22: the Mean relative activity is reported as 1.056. The same measure for B23: 0.8378. B24 returned a Mean relative activity of 1.056. The same measure for B25: 1.058. In the case of B26 it was 0.8464; in that of B27, 0.8408; in that of B28, 0.8653. Consider B29, for which the Mean relative activity came to 0.8571. In the case of B30 it was 0.8332; in that of B31, 0.8216; in that of B32, 0.8278. The same measure for B33: 0.8462.

For B34, the Mean relative activity came to 0.865.

B35: the Mean relative activity stood at 1.102. In the case of B36 it was 0.8361; in that of B37, 0.8216; in that of B38, 0.8652.

B39 registered a Mean relative activity of 0.8315.
